# B1: α-ketoisovalerate decarboxylase Kivd^S286T (enzyme, Lactococcus lactis)
# chain: MYTVGDYLLDRLHELGIEEIFGVPGDYNLQFLDQIISHKDMKWVGNANELNASYMADGYARTKKAAAFLTTFGVGELSAVNGLAGSYAENLPVVEIVGSPTSKVQNEGKFVHHTLADGDFKHFMKMHEPVTAARTLLTAENATVEIDRVLSALLKERKPVYINLPVDVAAAKAEKPSLPLKKENSTSNTSDQEILNKIQESLKNAKKPIVITGHEIISFGLEKTVTQFISKTKLPITTLNFGKSSVDEALPSFLGIYNGTLSEPNLKEFVESADFILMLGVKLTDTSTGAFTHHLNENKMISLNIDEGKIFNERIQNFDFESLISSLLDLSEIEYKGKYIDKKQEDFVPSNALLSQDRLWQAVENLTQSNETIVAEQGTSFFGASSIFLKSKSHFIGQPLWGSIGYTFPAALGSQIADKESRHLLFIGDGSLQLTVQELGLAIREKINPICFIINNDGYTVEREIHGPNQSYNDIPMWNYSKLPESFGATEDRVVSKIVRTENEFVSVMKEAQADPNRMYWIELILAKEGAPKVLKKMGKLFAEQNKS
# notes: α-ketoisovalerate decarboxylase (Kivd) from Lactococcus lactis with the substitution S286T; the structure section names residues up to 548; Stored with 2.5 mM MgSO4 and 0.1 mM ThDP; also called ST; not shown: H6-Ub, N-terminal, cleaved
# Target: the molecule itself
# Assay: crystal structure; hanging-drop vapour diffusion, 16-17.8% PEG6000 or PEG3350, 0.1 M MES pH 6.0, 20 °C; space group C2, four molecules (two dimers) in the asymmetric unit
protein,measurement,value
B1,stoichiometry N,4

# — PMC12312269, “Directed evolution of α-ketoisovalerate decarboxylase for improved isobutanol and 3-methyl-1-butanol production in cyanobacteria” (Biotechnology for Biofuels and Bioproducts, 2025)
